The results in this text go back to patent CN102875678A (WUXI PROGRAMMED ARTIFICIAL MOLECULAR EVOLUTION CO LTD, dated 2013).

The target of test [1] is 重组人CD20蛋白 (human) (UniProt P11836). The test can be described thus: Friguet method, Fab and human CD20 in solution, ELISA on immobilised human CD20. (An ELISA detects its analyte on a solid surface through an enzyme-linked reagent.)
The next test addresses T1, 重组人CD20蛋白 (human, UniProt P11836 1-297, limits assumed).
T1 construct: also called hCD20
T1 sequence (looked up): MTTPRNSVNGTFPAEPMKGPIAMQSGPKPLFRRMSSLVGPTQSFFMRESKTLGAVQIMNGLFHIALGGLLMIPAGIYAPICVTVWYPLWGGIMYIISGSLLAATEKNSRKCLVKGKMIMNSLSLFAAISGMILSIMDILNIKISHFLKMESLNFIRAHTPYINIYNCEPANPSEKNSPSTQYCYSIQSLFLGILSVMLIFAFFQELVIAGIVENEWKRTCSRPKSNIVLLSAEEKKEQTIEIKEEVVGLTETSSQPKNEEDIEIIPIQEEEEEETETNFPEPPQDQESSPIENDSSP
The test can be described thus: Friguet method, full-length antibody and human CD20.

Test [2] deals with hCD20 on B cell lines (Ramos, DHL-4, Daudi, Raji) (human) (UniProt P11836). The experiment in a line: cell-based or functional assay.
Test [3] concerns the target 重组人CD20蛋白 (human) (UniProt P11836). The experiment in a line: Friguet method, full-length antibody and human CD20.

As to C2B8 Fab, the equilibrium dissociation constant (Kd) (usually the free concentration of one partner at which half of the binding sites on the other are occupied at equilibrium, for simple one-to-one binding) with 重组人CD20蛋白 (human) [1] amounted to 1.83 nM. For “2F2 (即HuMax-CD20), full length (antibody)”, the dissociation constant Kd with 重组人CD20蛋白 worked out at 0.121 nM. In test [2], this molecule showed an ADCC靶细胞裂解 (Raji细胞, MNC效应细胞, 51Cr释放) of 35% and a CDC细胞裂解比例 (Daudi和Raji细胞, 10μg/ml抗体, 人血清) above 80%. C2B8 (即Rituxan), full length (antibody): in the test with 重组人CD20蛋白 (human) [3], the Kd was 3.51 nM.

B1: 全长8G3 (F8G3) (antibody)
chain 1: EVQLVESGGGLVQPGESLRLSCAGSGFTFNDYAMHWVRQMPGKGLEWVSTIYPW
chain 2: EIVLTQSPATLSLSPGERATLSCRASQFVGFYIHWYQQKPGQAPRLLIYAASERATGVPSRFSGSGSGTDFTLTISSLEPEDFAVYYCQQWLNNPFTFGQGTRLEII
In turn, B1 gave a Kd with 重组人CD20蛋白 of 0.037 nM.
